Patent US20250381254A1, “Augmented Acid Alpha-Glucosidase For The Treatment Of Pompe Disease” (Amicus Therapeutics, Inc., priority 2015, published 2025)
Like-named read-outs stand apart in the source and are kept apart here.

Assays:
cynomolgus monkeys = experiment: 13-week toxicity study in cynomolgus monkeys; conditions: once every other week for 13 weeks
Procedure: Animals were acclimated to the study room for 18 (females) to 19 (males) days. On the final day of acclimation, animals weighed between 2.243 kg and 5.413 kg and were 2 to 3 years of age.
ATB200 is formulated in 25 mM sodium phosphate buffer, pH 6 containing 2.92 mg/mL sodium chloride, 20 mg/mL mannitol, and 0.5 mg/mL polysorbate 80 (formulation buffer). Test article (ATB200 or miglustat) and control article/vehicle (formulation buffer) were administered once every other week for 13 weeks, starting on Day 1 and ending on Day 85. ATB200 and the control article/vehicle were administered by 2 hour (±10 minute) intravenous (IV) infusion at 0 mg/kg (Group 1, control article), 50 mg/kg (Group 2), or 100 mg/kg (Groups 3 and 5). Miglustat was administered nasogastrically in sterile water for injection, USP, at 25 mg/kg (Group 2) or 175 mg/kg (Groups 3 and 4), 30 minutes (±2 minutes) prior to the start of the infusion for ATB200, when given in combination. The dosing volume across all groups was 10 mL/kg.
Parameters assessed during the in-life phase of the study included body weights, food consumption, clinical observations, detailed clinical observations, physical examinations, electrocardiography, ophthalmic assessments, clinical pathology (hematology, coagulation, serum chemistry), anti-drug antibody (ADA) assessment, neutralizing ADA assessment, urinalysis, and plasma toxicokinetics (TK) for miglustat and ATB200 activity and total protein. Terminal necropsy of animals was performed on Day 99 (14 days after the last dose administration). At necropsy, gross observations and organ weights were recorded, and tissues were collected for microscopic examination.

[1] = in vivo, iv, 100 mg/kg
[2] = Clinical study: ALT, AST and CPK biomarkers; format: in vivo, human
Procedure: Alanine aminotransferase (ALT), aspartate aminotransferase (AST) and creatine phosphokinase (CPK) levels were monitored in human patients that switched from Lumizyme® to ATB200. The patients received ascending doses of ATB200 (5, 10 and 20 mg/kg) followed by co-administration of ATB200 (20 mg/kg) and miglustat (130 and 260 mg). High levels of CPK enzyme may indicate injury or stress to muscle tissue, heart, or brain. Elevated ALT and AST are markers of liver and muscle damage from Pompe disease, respectively.

[3] = cynomolgus monkey, in vivo
Procedure: ATB200 toxicokinetics were measured in blood samples collected in K2EDTA tubes from animals on Days 1 and 85 at the following time points: • For Groups 1, 2, 3, and 5: Predose (prior to administration of miglustat); 1 hour from initiation of infusion; 2 hours from initiation of infusion; 2.5 hours from initiation of infusion; 3 hours from initiation of infusion; 4 hours from initiation of infusion; 6 hours from initiation of infusion; 12 hours from initiation of infusion; 26 hours from initiation of infusion; 168 hours from initiation of infusion; and 336 hours from initiation of infusion (collected prior to dosing on Day 15); and • For Group 4: Predose (prior to administration of miglustat); 1.5 hour post administration of miglustat; 2.5 hours post administration of miglustat; 3.5 hours post administration of miglustat; 4.5 hours post administration of miglustat; 6.5 hours post administration of miglustat; 12.5 hours post administration of miglustat; 26.5 hours post administration of miglustat; 168.5 hours post administration of miglustat; and 336.5 hours post administration of miglustat (collected prior to dosing on Day 15). […]
Total ATB200 protein was measured by liquid chromatography coupled to tandem mass spectrometry (LC-MS/MS). […]

[4] = in vivo
Gaa knockout mice [5] = experiment: Glycogen clearance, ATB200 vs Lumizyme, two IV bolus administrations; format: in vivo, mouse; conditions: ATB200 10 and 20 mg/kg; skeletal muscles
Source text: Animals are given two IV bolus administrations (every other week); tissues are harvested two weeks after the last dose and analyzed for acid α-glucosidase activity and glycogen content.

[6] = tested on: normal and Pompe fibroblast cell lines; experiment: Cellular uptake of rhGAA in fibroblasts; format: cell-based; conditions: for concentration that saturates cellular receptors: 16-hr incubation
Procedure: The relative cellular uptake of ATB200 and Lumizyme® rhGAA were compared using normal and Pompe fibroblast cell lines. Comparisons involved 5-100 nM of ATB200 rhGAA according to the invention with 10-500 nM conventional rhGAA Lumizyme®. After 16-hr incubation, external rhGAA was inactivated with TRIS base and cells were washed 3-times with PBS prior to harvest. Internalized GAA measured by 4MU-α-Glucoside hydrolysis and was graphed relative to total cellular protein and the results appear in FIGS. 10A-B.

[7] = tested on: Pompe fibroblasts and skeletal muscle myoblasts; experiment: Internalization by Pompe fibroblasts and skeletal muscle myoblasts; format: cell-based
[8] = human, in vivo
Source text: The study will be conducted in 2 stages.
This stage will include: • Safety: review of AEs, including serious adverse events (SAEs) and IARs; review of concomitant medications and nondrug therapies; vital signs (HR, RR, BP, and temperature); brief PE; ECG; clinical safety laboratory assessments (serum chemistry, hematology, and urinalysis); and urine pregnancy test • PD: urinary Hex4 and serum CPK • Immunological: blood samples for anti-recombinant acid α-glucosidase antibody titers (anti-recombinant acid α-glucosidase total and neutralizing antibody titers and antibody cross-reactivity with alglucosidase alfa) and blood samples for measurement of pro-inflammatory cytokines and other biomarkers of immune system activation. If needed, IgE measurements will also be performed. • Serial 24-hour pharmacokinetics (PK): During Period 1 (Visit 3, Day 1), Period 2 (Visit 4, Day 15), and Period 3 (Visit 5, Day 29), blood sampling for plasma acid α-glucosidase activity levels and total acid α-glucosidase protein concentrations will be taken for all subjects.
• Safety: review of AEs, including SAEs and IARs; review of concomitant medications and nondrug therapies; vital signs (HR, RR, BP, and temperature); weight; PE; ECG; clinical safety laboratory assessments (serum chemistry, hematology, and urinalysis); and urine pregnancy test • PD: urinary Hex4 and serum CPK • Immunological: blood samples for anti-recombinant acid α-glucosidase antibody titers (anti-recombinant acid α-glucosidase total and neutralizing antibody titers, and antibody cross-reactivity with alglucosidase alfa) and blood samples for measurement of pro-inflammatory cytokines and other biomarkers of immune system activation. If needed, IgE measurements will also be performed. • Serial 24-hour PK: During Period 4 (Visit 6, Day 43 and Visit 8, Day 71) and Period 5 (Visit 9, Day 85 and Visit 11, Day 113), blood sampling for plasma acid α-glucosidase activity levels, total acid α-glucosidase protein concentrations, and miglustat concentrations will be taken for all subjects. […]

Gaa knockout mice [9] = experiment: Exposure-response: glycogen levels in Gaa knockout mice
Procedure: Gaa knockout mice are administered acid α-glucosidase (ATB200) intravenously at doses of 5, 10 and 20 mg/kg, rising oral doses of miglustat (1, 3 and 10 mg/kg) concomitantly with intravenous doses of 5 or 10 mg/kg of ATB200 or rising oral doses of miglustat (1, 3, 5, 10, 20, and 30 mg/kg) concomitantly with intravenous doses of 20 mg/kg of ATB200.

[10] = in vivo; remark: listed apart in the source
Procedure: Pharmacokinetic data for acid α-glucosidase (ATB200), including sampling times, dosing history and plasma concentrations of acid α-glucosidase, is obtained from mice, rats and monkeys administered ATB200 by intravenous injection. […] Modeling and simulations are performed using Phoenix® NLME™ v1.3. Compartmental PK models are constructed to assess the PK of ATB200 in plasma. The models include: • Description of the relationships between plasma concentration and time; • A variance component characterizing between- and within-animal variability in model parameters; and • A component describing uncertainty in the state of knowledge about critical model components.
PK is assumed to be species independent and is scaled according to a generalized Dedrick approach that scales the disposition according to the power of an animal's body weight:
where CL=systemic clearance, V=volume of distribution, BW=body weight, p=peripheral, b and d=allometric exponents, and a and c=typical values for a BW=1. […] Nominal BW (0.025, 0.25 and 2.5 kg) are used in the analyses.
The model includes a theoretical allometric component accounting for difference in body weight across animal species on clearance (CL) and volume of distribution (Vc).

Gaa knockout mice [11] = experiment: Muscle physiology and morphology in Gaa-knockout mice; format: in vivo, mouse; conditions: 20 mg/kg rhGAA IV every other week, miglustat 10 mg/kg oral where co-administered
CIMPR [12] = biological target: T1, CIMPR (Homo sapiens, UniProt P11717); experiment: CIMPR plate binding assay
Procedure: Briefly, CIMPR-coated plates were used to capture GAA. Varying concentrations of rhGAA were applied to the immobilized receptor and unbound rhGAA was washed off. The amount of remaining rhGAA was determined by GAA activity.

[13] = cynomolgus monkey, in vivo; remark: listed apart in the source
Procedure: Total anti-drug antibody (ADA) and neutralizing antibody (NAb) levels are measured in plasma. Blood samples (approximately 1.6 mL) were collected in K2EDTA tubes from all animals once during acclimation, predose (prior to administration of miglustat) and on Days 1, 85 and 99. Samples were maintained on wet ice until processed. Plasma was obtained by centrifugation at 2° C. to 8° C. and aliquots (approximately 0.2 mL) were transferred to polypropylene vials, and stored frozen at −60° C. to −86° C. within one hour from blood collection. Analysis of samples for ADA was conducted on samples collected from animals in Groups 1, 2, 3, and 5 (miglustat only samples were not analyzed). Analysis for neutralizing antibodies was conducted using an enzyme assay with the fluorogenic substrate 4-methylumbelliferyl-α-D-glucopyranoside (4MU-Glc).

[14] = human, in vivo; remark: listed apart in the source
Procedure: This is an open-label, fixed-sequence, ascending-dose, first-in-human study to evaluate the safety, tolerability, and pharmacokinetics (PK) of intravenous (IV) recombinant acid α-glucosidase (ATB200, lyophilized powder reconstituted with sterile water for injection and diluted with 0.9% sodium chloride for injection) alone and when co-administered with oral miglustat (hard gelatin capsules, 65 mg). The study will be conducted in 2 stages. In Stage 1, safety, tolerability, and PK will be evaluated following sequential single ascending doses of ATB200, administered every 2 weeks as an approximately 4 hour intravenous infusion, for 3 dosing periods at 5, 10, and 20 mg/kg. In Stage 2, safety, tolerability, and PK will be evaluated following single- and multiple-ascending dose combinations: 20 mg/kg ATB200 co-administered every 2 weeks with 130 mg miglustat (two 65 mg capsules), taken orally 1 hour prior to an approximately 4 hour intravenous infusion of ATB200, for 3 doses followed by 20 mg/kg ATB200 co-administered with 260 mg miglustat (four 65 mg capsules), taken orally 1 hour prior to an approximately 4 hour intravenous infusion of ATB200, for 3 doses.

Gaa KO mice = experiment: Muscle function in Gaa KO mice, 12 biweekly administrations; format: in vivo, mouse; conditions: 20 mg/kg ERT, 10 mg/kg miglustat, FIGS. 33A-33B
Source text: In FIG. 33A, * indicates statistically significant compared to Lumizyme® alone (p<0.05, 2-sided t-test). In FIGS. 34A-34G, * indicates statistically significant compared to Lumizyme® alone (p<0.05, multiple comparison using Dunnett's method under one-way ANOVA analysis).

[15] = cited from earlier work
CIMPR [16] = biological target: T1, CIMPR; experiment: CIMPR affinity chromatography of rhGAA; format: binding; conditions: fraction of total enzyme by GAA activity
Procedure: To evaluate the ability of the rhGAA in Myozyme® and Lumizyme®, the only currently approved treatments for Pompe disease, these rhGAA preparations were injected onto a CIMPR column (which binds rhGAA having M6P groups) and subsequently eluted with a free […] gradient. Fractions were collected in 96-well plate and GAA activity assayed by 4MU—α-glucose substrate. The relative amounts of bound and unbound rhGAA were determined based on GAA activity and reported as the fraction of total enzyme.

[17] = one patient, switched from Lumizyme®, ATB200 5, 10, 20 mg/kg then 20 mg/kg + miglustat 130 and 260 mg

T1 sequence (P11717 41-2491, species assumed): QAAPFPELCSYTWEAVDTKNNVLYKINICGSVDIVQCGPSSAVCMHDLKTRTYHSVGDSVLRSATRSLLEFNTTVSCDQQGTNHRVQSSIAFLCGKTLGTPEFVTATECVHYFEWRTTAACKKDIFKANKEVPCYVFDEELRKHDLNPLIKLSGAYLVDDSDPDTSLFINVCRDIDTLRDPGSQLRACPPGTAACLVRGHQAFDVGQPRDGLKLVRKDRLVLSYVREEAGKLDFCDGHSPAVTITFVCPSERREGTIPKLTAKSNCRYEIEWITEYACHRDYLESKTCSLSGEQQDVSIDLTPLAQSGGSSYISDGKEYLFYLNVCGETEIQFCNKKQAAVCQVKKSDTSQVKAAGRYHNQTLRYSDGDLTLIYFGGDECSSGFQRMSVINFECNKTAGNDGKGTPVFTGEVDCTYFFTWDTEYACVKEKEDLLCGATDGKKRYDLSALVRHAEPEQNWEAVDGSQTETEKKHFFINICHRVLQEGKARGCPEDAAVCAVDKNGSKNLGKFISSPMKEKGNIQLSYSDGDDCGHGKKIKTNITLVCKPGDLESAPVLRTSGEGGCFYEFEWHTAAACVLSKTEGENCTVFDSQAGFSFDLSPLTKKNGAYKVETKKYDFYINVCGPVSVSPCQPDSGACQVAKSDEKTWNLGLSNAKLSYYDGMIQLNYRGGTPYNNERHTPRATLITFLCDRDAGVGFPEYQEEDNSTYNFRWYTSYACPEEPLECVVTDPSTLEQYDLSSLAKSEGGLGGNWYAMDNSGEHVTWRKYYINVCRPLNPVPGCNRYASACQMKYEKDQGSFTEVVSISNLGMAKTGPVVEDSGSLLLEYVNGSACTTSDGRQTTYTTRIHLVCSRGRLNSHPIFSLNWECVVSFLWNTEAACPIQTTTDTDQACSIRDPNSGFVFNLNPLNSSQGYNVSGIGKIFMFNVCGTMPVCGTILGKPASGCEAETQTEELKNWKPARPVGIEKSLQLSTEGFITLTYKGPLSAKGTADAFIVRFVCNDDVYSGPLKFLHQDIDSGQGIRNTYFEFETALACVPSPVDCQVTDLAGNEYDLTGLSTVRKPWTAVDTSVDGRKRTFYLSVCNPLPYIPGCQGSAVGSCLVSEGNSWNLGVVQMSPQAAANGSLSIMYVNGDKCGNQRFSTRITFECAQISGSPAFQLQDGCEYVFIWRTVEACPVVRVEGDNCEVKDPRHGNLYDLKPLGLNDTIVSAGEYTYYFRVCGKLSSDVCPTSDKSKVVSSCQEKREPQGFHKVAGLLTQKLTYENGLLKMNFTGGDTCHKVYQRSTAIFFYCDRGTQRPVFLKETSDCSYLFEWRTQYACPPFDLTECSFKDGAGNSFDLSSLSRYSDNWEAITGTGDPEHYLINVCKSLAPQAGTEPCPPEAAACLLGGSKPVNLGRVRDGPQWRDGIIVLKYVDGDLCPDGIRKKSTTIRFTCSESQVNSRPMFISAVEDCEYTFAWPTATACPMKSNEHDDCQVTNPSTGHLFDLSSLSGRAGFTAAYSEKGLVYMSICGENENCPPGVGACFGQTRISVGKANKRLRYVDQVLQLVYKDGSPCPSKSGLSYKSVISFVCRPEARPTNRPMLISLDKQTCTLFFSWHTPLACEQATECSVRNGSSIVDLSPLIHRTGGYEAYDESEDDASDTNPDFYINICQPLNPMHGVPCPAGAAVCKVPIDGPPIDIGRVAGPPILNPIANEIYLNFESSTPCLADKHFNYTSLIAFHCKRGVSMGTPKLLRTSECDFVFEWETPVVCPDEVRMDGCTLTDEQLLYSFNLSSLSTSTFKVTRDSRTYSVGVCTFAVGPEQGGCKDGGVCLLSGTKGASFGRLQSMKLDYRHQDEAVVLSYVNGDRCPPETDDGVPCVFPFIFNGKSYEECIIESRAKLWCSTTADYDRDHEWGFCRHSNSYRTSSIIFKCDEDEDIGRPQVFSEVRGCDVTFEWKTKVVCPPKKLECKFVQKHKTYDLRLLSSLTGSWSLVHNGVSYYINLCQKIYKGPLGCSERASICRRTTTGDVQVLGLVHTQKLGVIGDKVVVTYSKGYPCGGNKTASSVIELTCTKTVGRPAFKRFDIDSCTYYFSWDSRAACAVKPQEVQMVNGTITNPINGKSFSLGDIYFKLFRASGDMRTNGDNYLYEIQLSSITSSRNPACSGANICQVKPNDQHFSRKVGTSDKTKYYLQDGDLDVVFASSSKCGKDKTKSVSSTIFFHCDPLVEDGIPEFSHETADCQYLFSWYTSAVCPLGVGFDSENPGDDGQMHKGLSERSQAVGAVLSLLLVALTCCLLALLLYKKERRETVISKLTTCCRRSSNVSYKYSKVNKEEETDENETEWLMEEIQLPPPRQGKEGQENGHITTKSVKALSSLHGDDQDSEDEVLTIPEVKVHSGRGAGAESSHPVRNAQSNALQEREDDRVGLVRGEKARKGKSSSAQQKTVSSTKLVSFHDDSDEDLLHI

For ATB200, the “test article-related changes (survival, clinical observations, body weight, ECG, clinical pathology, organ weights, histopathology)” value (cynomolgus monkeys) was “no changes attributable”, the “No-Observed-Adverse-Effect-Level (NOAEL)” value (cynomolgus monkeys; 2 hour infusion, with or without miglustat, highest dosage tested) was 100 mg/kg/infusion and the AUC [1] was 5330 µg·h/mL. For the same substance, the “reduction in ALT” value ([2]; another patient, same regimen) was 11%, the “reduction in AST” value ([2]; another patient, same regimen) was 22% and the “reduction in CPK” value ([2]; another patient, same regimen) was 31%. The “reduction in ALT” value [2, 17] was 34%, the “reduction in AST” value [2, 17] was 28% and the “reduction in CPK” value [2, 17] was 44%. The “mean terminal half-life (t1/2β)” value [3] was 1.70 to 11.1 h, the “time to maximal ATB200 plasma concentration (tmax)” value [3] was “approximately 2 hours” and the “apparent plasma half-life t1/2” value [4] was about 45 m. For the same substance, the “glycogen reduction vs Lumizyme® 20 mg/kg” value (Gaa knockout mice [5]) was “significantly better reduction of glycogen levels in skeletal muscles than Lumizyme®”, the “concentration that saturates cellular receptors” value [6] was “about 20 nM” and the “internalization into normal and Pompe fibroblast cells” value ([6]; vs Lumizyme®) was “internalized to a greater degree than conventional Lumizyme® rhGAA”. The “Kupdate (internalization)” value [7] was 7 to 14 nM, the Volume of distribution [8] was 3.5 to 5.7 L and the “dose proportionality of exposures” value [8] was “slightly greater than dose proportional exposures”. For the same substance, the “tmax (median)” value ([8]; 20 mg/kg) was 4.0 h, the tissue glycogen depletion (Gaa knockout mice [9]; 5, 10 and 20 mg/kg IV) was “deplete tissue glycogen in acid α-glucosidase (Gaa) knockout mice in a dose-dependent fashion” and the “Glycogen, median” value (Gaa knockout mice [9]; ATB200 5 mg/kg monotherapy, Study #1) was 307 μg/mg protein. The “Glycogen, median” value (Gaa knockout mice [9]; ATB200 5 mg/kg monotherapy, overall median) was 307 μg/mg protein, the “Glycogen, median” value (Gaa knockout mice [9]; ATB200 10 mg/kg monotherapy, Study #1) was 259 μg/mg protein and the “Glycogen, median” value (Gaa knockout mice [9]; ATB200 10 mg/kg monotherapy, overall median) was 259 μg/mg protein. For the same substance, the “Glycogen, median” value (Gaa knockout mice [9]; ATB200 20 mg/kg monotherapy, Study #1) was 157 μg/mg protein, the “Glycogen, median” value (Gaa knockout mice [9]; ATB200 20 mg/kg monotherapy, Study #3) was 195 μg/mg protein and the “Glycogen, median” value (Gaa knockout mice [9]; ATB200 20 mg/kg monotherapy, overall median) was 181 μg/mg protein. For the same substance, the “Central volume of distribution (Vc)” value [10] was 0.0101 × (BW/0.25)^0.83 L, the “Peripheral clearance (CLd)” value [10] was 0.00029 × (BW/0.25)^0.78 L/h and the “Peripheral volume of distribution (V2)” value [10] was 0.000653 × (BW/0.25)^0.83 L. For the same substance, the “Systemic clearance (CL)” value [10] was 0.00957 × (BW/0.25)^0.78 L/h, the “lysosome proliferation (LAMP1)” value (Gaa knockout mice [11]; FIG. 20) was “reduction in lysosome proliferation in heart, diaphragm and skeletal muscle (soleus) tissue compared to conventional treatment with alglucosidase alfa” and the “punctate glycogen levels (PAS)” value (Gaa knockout mice [11]; FIG. 21) was “reduction in punctate glycogen levels in heart and skeletal muscle (soleus) tissue compared to conventional treatment with alglucosidase alfa”. The “CIMPR binding compared with Lumizyme®” value (CIMPR [12]; FIG. 9A) was “bound to CIMPR significantly better than Lumizyme®”, the Kd (CIMPR [12]; M6P receptor plate binding assays) was 2 to 4 nM and the “anti-drug antibody (ADA) incidence” value [13] was 100%. For the same substance, the adverse events [14] was “generally mild and transient”, the infusion-associated reactions [14] was “no infusion-associated reactions” and the serious adverse events [14] was “no serious adverse events (SAEs)”.
For “Lumizyme®: conventional rhGAA product (alglucosidase alfa), Genzyme”, the “functional muscle strength (grip strength and wire hang tests)” value (Gaa KO mice) was “observed to decline”, the “concentration that saturates cellular receptors” value [6] was “about 250 nM” and the “uptake efficiency constant (Kuptake)” value ([6]; extrapolated, FIG. 10C) was 56 nM. The AUC ([15]; 20 mg/kg dose, reported) was about 2700 µg·h/mL, the systemic clearance ([15]; Week 52, repeated dosing, late-stage Pompe disease, product label) was 601 mL/h and the half-life ([15]; product label) was 2.4 h. For the same substance, the “rhGAA activity eluted prior to addition of M6P (did not bind to the CIMPR)” value (CIMPR [16]) was 78% and the “rhGAA eluted with M6P / containing M6P (CIMPR binding)” value (CIMPR [16]) was 22%.
